According to patent US6586222:

Molecular target: 35S-cysteine-labelled 26 kD proTNFα (in vitro transcribed/translated)

B1: TNFα convertase purified from HL60 cell membrane fraction (identified as PR-3) (protein)
chain: IVGGHEAQPHSRPYMASLQMRGNPGSHFCGGTLIHPSFVLTAAHCLRDIPQRLVNVVLGAHNVRTQEPTQQHFSVAQVFLNNYDAENKLNDVLLIQLSSPANLSASVATVQLPQQDQPVPHGTQCLAMGWGRVGAHDPPAQVLQELNVTVVTFFCRPHNICTFVPRRKAGICFGDSGGPLICDGIIQGIDSFVIWGCATRLFPDFFTRVALYVDWIRSTLR
- cleavage of 26 kD proTNFα to the 17 kD mature form: The purified convertase was shown to cleave the 26 kD proTNFα to the 17 kD mature form.
